First the molecules themselves.
B1: Myc-tagged FLNc d18–21 WT (expressed in C2 cells) [human] / FILIP1 CT-GFP (expressed in C2 cells) [not stated] (parent)
chain 1: MRSRNQGGESASDGHISCPKPSIIGNAGEKSLSEDAKKKKKSNRKEDDVMASGTVKRHLKTSGECERKTKKSLELSKEDLIQLLSIMEGELQAREDVIHMLKTEKTKPEVLEAHYGSAEPEKVLRVLHRDAILAQEKSIGEDVYEKPISELDRLEEKQKETYRRMLEQLLLAEKCHRRTVYELENEKHKHTDYMNKSDDFTNLLEQERERLKKLLEQEKAYQARKEKENAKRLNKLRDELVKLKSFALMLVDERQMHIEQLGLQSQKVQDLTQKLREEEEKLKAITSKSKEDRQKLLKLEVDFEHKASRFSQEHEEMNAKLANQESHNRQLRLKLVGLTQRIEELEETNKNLQKAEEELQELRDKIAKGECGNSSLMAEVENLRKRVLEMEGKDEEITKTESQCRELRKKLQEEEHHSKELRLEVEKLQKRMSELEKLEEAFSKSKSECTQLHLNLEKEKNLTKDLLNELEVVKSRVKELECSESRLEKAELSLKDDLTKLKSFTVMLVDERKNMMEKIKQEERKVDGLNKNFKVEQGKVMDVTEKLIEESKKLLKLKSEMEEKVYNLTRERDELIGKLKSEEEKSSELSCSVDLLKKRLDGIEEVEREITRGRSRKGSELTCPEDNKIKELTLEIERLKKRLQQLEVVEGDLMKTEDEYDQLEQKFRTEQDKANFLSQQLEEIKHQIAKNKAIEKGEVVSQEAELRHRFRLEEAKSRDLKAEVQALKEKIHELMNKEDQLSQLQVDYSVLQQRFMEEENKNKNMGQEVLNLTKELELSKRYSRALRPSVNGRRMVDVPVTSTGVQTDAVSGEAAEEETPAVFIRKSFQEENHIMSNLRQVGLKKPVERSSVLDRYPPAANELTMRKSWIPWMRKRENGPSITQEKGPRTNSSPGHPGEVVLSPKQGQPLHIRVTPDHENSTATLEITSPTSEEFFSSTTVIPTLGNQKPRITIIPSPNVMPQKQKSGDTTLGPERAMSPVTITTFSREKTPESGRGAFADRPTSPIQIMTVSTSAAPAEIAVSPESQEMPMGRTILKVTPEKQTVPTPVRKYNSNANIITTEDNKIHIHLGSQFKRSPGTSGEGVSPVITVRPVNVTAEKEVSTGTVLRSPRNHLSSRPGASKVTSTITITPVTTSSARGTQSVSGQDGSSQRPTPTRIPMSKGMKAGKPVVAAPGAGNLTKFEPRAETQSMKIELKKSAASSTTSLGGGKG
chain 2: TGDDSMRTSQLNVGTSTDVSLKITESDLSQLTASIRAPSGNEEPCLLKRLPNRHIGISFTPKEVGEHVVSVRKSGKHVTNSPFKILVGPSEIGDASKVRVWGKGLSEGHTFQVAEFIVDTRNAGYGGLGLSIEGPSKVDINCEDMEDGTCKVTYCPTEPGTYIINIKFADKHVPGSPFTVKVTGEGRMKESITRRRQAPSIATIGSTCDLNLKIPGNWFQMVSAQERLTRTFTRSSHTYTRTERTEISKTRGGETKREVRVEESTQVGGDPFPAVFGDFLGRERLGSFGSITRQQEGEASSQDMTAQVTSPSGKVEAAEIVEGEDSAYSVRFVPQEMGPHTVAVKYRGQHVPGSPFQFTVGPLGEGGAHKVRAGGTGLERGVAGVPAEFSIWTREAGAGGLSIAVEGPSKAEIAFEDRKDGSCGVSYVVQEPGDYEVSIKFNDEHIPDSPFVVPVASLSDDARR
B2: Myc-hFLNc d18–21 wild type (expressed in HEK293 cells) [human] / FILIP1 CT-GFP (expressed in HEK293 cells) [not stated] (parent)
chain 1: LELSKRYSRALRPSVNGRRMVDVPVTSTGVQTDAVSGEAAEEETPAVFIRKSFQEENHIMSNLRQVGLKKPVERSSVLDRYPPAANELTMRKSWIPWMRKRENGPSITQEKGPRTNSSPGHPGEVVLSPKQGQPLHIRVTPDHENSTATLEITSPTSEEFFSSTTVIPTLGNQKPRITIIPSPNVMPQKQKSGDTTLGPERAMSPVTITTFSREKTPESGRGAFADRPTSPIQIMTVSTSAAPAEIAVSPESQEMPMGRTILKVTPEKQTVPTPVRKYNSNANIITTEDNKIHIHLGSQFKRSPGTSGEGVSPVITVRPVNVTAEKEVSTGTVLRSPRNHLSSRPGASKVTSTITITPVTTSSARGTQSVSGQDGSSQRPTPTRIPMSKESIIIHQLRMNSR
chain 2: B1 chain 2

In one assay the parent is B1. As to the kind of experiment: co-immunoprecipitation (anti-Myc) with quantitative immunoblot. As to conditions: C2 cells transiently expressing FILIP1 CT-GFP and Myc-hFLNc d18–21, n = 3, read off a plot. On the technique in general: In western blotting, separated proteins are transferred to a membrane and probed.
Regarding chain 2 S287D S290D, the ratio to parent amounted to 0.82.

Take chain 2 S287A S290A: the ratio to parent is 1.8.

Variants of B2 are the subject of another assay. The description is as above. The conditions noted are these: HEK293 cells transiently expressing FILIP1 CT-GFP and Myc-hFLNc d18–21, n = 3–6, read off a plot.
Regarding chain 2 S287D, the ratio to parent was 1.

On to chain 2 S287A, for which the ratio to parent came out at 1.4.

Turning to chain 2 S290A, the ratio to parent stood at 1.

Take chain 2 S290D: the ratio to parent was determined as 1.

In the case of chain 2 S287D S290D, the ratio to parent came to 0.82.

In the case of chain 2 S287A S290A, the ratio to parent was 2.1.

The values are drawn from publication PMC7244511, “Phosphoproteomics identifies dual-site phosphorylation in an extended basophilic motif regulating FILIP1-mediated degradation of filamin-C” (Communications Biology, 2020).
